In EP1899377B1:

Molecular target: GST-human NOGO-A56 (human) (UniProt Q9NQC3)
Experiment: SPR (Biacore T100), reverse format: antibody captured on Protein A, human NOGO 5+6 GST as analyte, 1:1 model; mean (SD) of 5 or 6 runs

GST-human NOGO-A56 (human), sequence (Q9NQC3 586-785, form in doubt): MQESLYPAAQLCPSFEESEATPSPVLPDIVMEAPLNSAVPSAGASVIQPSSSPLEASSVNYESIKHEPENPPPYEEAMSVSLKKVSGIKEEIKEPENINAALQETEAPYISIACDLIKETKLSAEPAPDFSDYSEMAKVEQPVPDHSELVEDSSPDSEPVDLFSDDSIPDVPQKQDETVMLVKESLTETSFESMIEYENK

- Kd: 0.42 nM
- koff: 0.000117 s⁻¹
- kon: 285000 M⁻¹ s⁻¹
Substance: 11C7 (chimeric version) (antibody)
